Data reported in patent US20070202045A1 (published 2007).
Bridges are numbered along the chain shown (N, C = ends).

Biological target: T1, rabbit albumin (rabbit, UniProt P49065 25-608)
T1 chain: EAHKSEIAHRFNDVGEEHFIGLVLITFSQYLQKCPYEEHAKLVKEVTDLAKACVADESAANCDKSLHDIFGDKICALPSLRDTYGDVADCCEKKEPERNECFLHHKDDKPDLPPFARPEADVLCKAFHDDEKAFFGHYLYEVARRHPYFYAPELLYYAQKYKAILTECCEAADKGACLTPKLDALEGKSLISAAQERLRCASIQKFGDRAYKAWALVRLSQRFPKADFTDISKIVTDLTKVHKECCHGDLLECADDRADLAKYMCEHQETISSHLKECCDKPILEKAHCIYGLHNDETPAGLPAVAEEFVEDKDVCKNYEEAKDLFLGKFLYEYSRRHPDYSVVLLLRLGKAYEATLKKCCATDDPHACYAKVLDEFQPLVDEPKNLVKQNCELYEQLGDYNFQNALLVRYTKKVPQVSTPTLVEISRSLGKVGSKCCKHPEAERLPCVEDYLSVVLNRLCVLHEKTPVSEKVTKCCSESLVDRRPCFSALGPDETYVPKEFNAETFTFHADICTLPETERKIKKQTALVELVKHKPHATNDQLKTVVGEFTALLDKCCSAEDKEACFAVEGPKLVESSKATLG
Assay: competition ELISA (SA08b binding to rabbit albumin)

## Ac-QGLIGDICLPRWGCLWGDSVK-NH2 (disulfide 8-14 (inferred)) [SA08]
  IC50: 33 nM
